This note sets out measurements from patent publication US20060088524A1 (BOARD OF TRUSTEES OF THE UNIVERSITY OF ILLINOIS, published 2006).

The target of series [1] is TF:VIIa complex (1:1 complex of rTF and factor VIIa on a phospholipid surface) (UniProt P08709).
The target of series [2] is T1, recombinant human tissue factor (rTF), membrane-anchored, HPC4-tagged, cytoplasmic domain truncated.
T1 chain: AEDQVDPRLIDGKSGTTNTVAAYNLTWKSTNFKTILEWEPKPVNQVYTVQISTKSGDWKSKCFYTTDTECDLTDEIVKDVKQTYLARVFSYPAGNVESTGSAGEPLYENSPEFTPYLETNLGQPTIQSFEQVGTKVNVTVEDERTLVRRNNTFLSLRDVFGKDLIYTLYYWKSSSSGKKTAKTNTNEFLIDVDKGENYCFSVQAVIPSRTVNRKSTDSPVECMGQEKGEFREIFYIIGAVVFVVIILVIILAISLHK

As for coagulation factor X, in series [1], the Km for factor X activation; TF-Nanodiscs, 10% PS, 90% PC was 0.132 µM; the Km for factor X activation; TF-Nanodiscs, 20% PS, 80% PC came to 0.0686 µM; the Km for factor X activation; TF-Nanodiscs, 30% PS, 70% PC came to 0.0452 µM; the Km for factor X activation; TF-liposomes, 20% PS, 80% PC came out at 0.0202 µM. Also, in series [1], the Km, app for factor X activation; rTF in PCPS vesicles stood at 0.0202 µM and the Km, app for factor X activation; rTF-PCPS-nanoscale discs was found to be 0.0686 µM.

B1: coagulation factor VIIa (protein)
chain: ANAFLEELRPGSLERECKEEQCSFEEAREIFKDAERTKLFWISYSDGDQCASSPCQNGGSCKDQLQSYICFCLPAFEGRNCETHKDDQLICVNENGGCEQYCSDHTGTKRSCRCHEGYSLLADGVSCTPTVEYPCGKIPILEKRNASKPQGRIVGGKVCPKGECPWQVLLLVNGAQLCGGTLINTIWVVSAAHCFDKIKNWRNLIAVLGEHDLSEHDGDEQSRRVAQVIIPSTYVPGTTNHDIALLRLHQPVVLTDHVVPLCLPERTFSERTLAFVRFSLVSGWGQLLDRGATALELMVLNVPRLMTQDCLQQSRKVGDSPNITEYMFCAGYSDGSKDSCKGDSGGPHATHYRGTWYLTGIVSWGQGCATVGHFGVYTRVSQYIEWLQKLMRSEPRPGVLLRAPFP
For the molecule B1, the “procoagulant activity (plasma clotting) of TF-containing nanoscale discs” value in series [2] is recorded as “the resultant discs exhibit strong procoagulant activity”.
